Here are results for twelve molecules from patent US20200079833A1 (AstraZeneca / MedImmune, published 2020).

T1: glucose-dependent insulinotropic peptide (gastric inhibitory polypeptide) receptor (GIPR) (human, UniProt P48546 22-466)
T1 sequence (looked up): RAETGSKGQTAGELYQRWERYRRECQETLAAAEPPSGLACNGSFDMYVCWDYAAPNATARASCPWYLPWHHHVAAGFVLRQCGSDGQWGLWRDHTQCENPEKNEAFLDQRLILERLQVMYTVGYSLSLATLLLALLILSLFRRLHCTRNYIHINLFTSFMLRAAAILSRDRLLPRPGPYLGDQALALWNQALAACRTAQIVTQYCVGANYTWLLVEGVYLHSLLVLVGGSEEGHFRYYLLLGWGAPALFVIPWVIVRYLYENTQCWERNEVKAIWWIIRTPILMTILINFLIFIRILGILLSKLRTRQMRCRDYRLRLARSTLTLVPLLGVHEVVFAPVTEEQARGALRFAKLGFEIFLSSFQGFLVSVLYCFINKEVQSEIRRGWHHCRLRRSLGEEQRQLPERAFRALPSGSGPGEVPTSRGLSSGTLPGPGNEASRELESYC

B1: SEQ ID NO 121 (peptide)
peptide: H[Aib]EGS[αMeF]TK([PEG2′-PEG2′-γGlu-Stearoyl])DV[αMeS]S[αMeF]LEGEAA[αMeK]E[αMeF]IA[αMeF]VV[αMeK]GG-NH2
B2: SEQ ID NO 122 (peptide)
peptide: H[Aib]EGS[αMeF]K([PEG2′-PEG2′-γGlu-Stearoyl])SDV[αMeS]S[αMeF]LEGEAA[αMeK]E[αMeF]IA[αMeF]VV[αMeK]GG-NH2
B3: SEQ ID NO 117 (peptide)
peptide: H[Aib]EGS[αMeF]TSDV[αMeS]K([PEG2′-PEG2′-γGlu-Stearoyl])[αMeF]LEGEAA[αMeK]E[αMeF]IA[αMeF]VV[αMeK]GG-NH2
B4: SEQ ID NO 120 (peptide)
peptide: H[Aib]EGS[αMeF]TSK([PEG2′-PEG2′-γGlu-Stearoyl])V[αMeS]S[αMeF]LEGEAA[αMeK]E[αMeF]IA[αMeF]VV[αMeK]GG-NH2
B5: SEQ ID NO 114 (peptide)
peptide: H[Aib]EGS[αMeF]TSDV[αMeS]S[αMeF]LK([PEG2′-PEG2′-γGlu-Stearoyl])GEAA[αMeK]E[αMeF]IA[αMeF]VV[αMeK]GG-NH2
B6: SEQ ID NO 116 (peptide)
peptide: H[Aib]EGS[αMeF]TSDV[αMeS]SK([PEG2′-PEG2′-γGlu-Stearoyl])LEGEAA[αMeK]E[αMeF]IA[αMeF]VV[αMeK]GG-NH2
B7: SEQ ID NO 124 (peptide)
peptide: H[Aib]EGK([PEG2′-PEG2′-γGlu-Stearoyl])[αMeF]TSDV[αMeS]S[αMeF]LEGEAA[αMeK]E[αMeF]IA[αMeF]VV[αMeK]GG-NH2
B8: SEQ ID NO 118 (peptide)
peptide: H[Aib]EGS[αMeF]TSDVK([PEG2′-PEG2′-γGlu-Stearoyl])S[αMeF]LEGEAA[αMeK]E[αMeF]IA[αMeF]VV[αMeK]GG-NH2
B9: SEQ ID NO 123 (peptide)
peptide: H[Aib]EGSK([PEG2′-PEG2′-γGlu-Stearoyl])TSDV[αMeS]S[αMeF]LEGEAA[αMeK]E[αMeF]IA[αMeF]VV[αMeK]GG-NH2
B10: SEQ ID NO 115 (peptide)
peptide: H[Aib]EGS[αMeF]TSDV[αMeS]S[αMeF]K([PEG2′-PEG2′-γGlu-Stearoyl])EGEAA[αMeK]E[αMeF]IA[αMeF]VV[αMeK]GG-NH2
B11: SEQ ID NO 125 (peptide)
peptide: H[Aib]EK([PEG2′-PEG2′-γGlu-Stearoyl])S[αMeF]TSDV[αMeS]S[αMeF]LEGEAA[αMeK]E[αMeF]IA[αMeF]VV[αMeK]GG-NH2
B12: SEQ ID NO 119 (peptide)
peptide: H[Aib]EGS[αMeF]TSDK([PEG2′-PEG2′-γGlu-Stearoyl])[αMeS]S[αMeF]LEGEAA[αMeK]E[αMeF]IA[αMeF]VV[αMeK]GG-NH2

Starred links: 1 amine or outer side, 2 acyl side, 3 side chain; linkers in the order of their positions; H or OH if unused. Non-standard residues stand in square brackets, D forms with d. Groups on a side chain read outwards from the residue. Primed or numbered codes have the meaning given here. No end group written: not given here. *: point of attachment. γGlu = O=C(O)[C@H](CCC(=O)[*:2])N[*:1]; Stearoyl = CCCCCCCCCCCCCCCCCC(=O)*; αMeF = C[C@](N)(Cc1ccccc1)C(=O)O; αMeK = C[C@](N)(CCCCN)C(=O)O; αMeS = C[C@](N)(CO)C(=O)O; PEG2′ = not defined here; Aib = CC(C)(N)C(=O)O

The target of one experiment is T1, glucose-dependent insulinotropic …. Put plainly: cell-based or functional assay.
As to B1, the “cAMP Primary assay EC50 GIP-R” value is 25 nM and the “cAMP Primary assay EC50 GIP-R (2nd)” value is 25.1 nM.
As for B2, the “cAMP Primary assay EC50 GIP-R” value stood at 25 nM and the “cAMP Primary assay EC50 GIP-R (2nd)” value worked out at 25.2 nM.
For B3, in that order: 25 nM and 25.1 nM.
Turning to B4, the “cAMP Primary assay EC50 GIP-R” value came to 25 nM and the “cAMP Primary assay EC50 GIP-R (2nd)” value turned out to be 25.3 nM.
As to B5, the “cAMP Primary assay EC50 GIP-R” value was 25 nM and the “cAMP Primary assay EC50 GIP-R (2nd)” value turned out to be 25.4 nM.
In the case of B6, the “cAMP Primary assay EC50 GIP-R” value came to 26 nM and the “cAMP Primary assay EC50 GIP-R (2nd)” value worked out at 25.6 nM.
The like results for B7 were, in that order, 25 nM and 25.1 nM.
For B8, in that order: 25 nM and 25.2 nM.
B9: the “cAMP Primary assay EC50 GIP-R” value is 26 nM and the “cAMP Primary assay EC50 GIP-R (2nd)” value turned out to be 25.6 nM.
For B10, in that order: 25 nM and 25.3 nM.
Consider B11, for which the “cAMP Primary assay EC50 GIP-R” value is 25 nM and the “cAMP Primary assay EC50 GIP-R (2nd)” value amounted to 24.9 nM.
B12: the “cAMP Primary assay EC50 GIP-R” value was 25 nM and the “cAMP Primary assay EC50 GIP-R (2nd)” value was 25.2 nM.

The target in the next experiment is GLP-1 receptor (GLP-1R) (human, UniProt P43220 24-463). As to the kind of experiment: cell-based or functional assay.
As for B1, the “cAMP Mean pM GLP-1R” value came out at 25100 pM, the “cAMP Primary assay EC50 GLP-1R n1” value came to 25 nM and the “cAMP Primary assay EC50 GLP-1R n2” value came to 25.1 nM.
The like results for B2 were, in that order, 25200 pM, 25 nM and 25.2 nM.
On to B3, for which the “cAMP Mean pM GLP-1R” value amounted to 25 pM, the “cAMP Primary assay EC50 GLP-1R n1” value is 0.026 nM and the “cAMP Primary assay EC50 GLP-1R n2” value worked out at 0.0244 nM.
For B4, in that order: 3640 pM, 4.1 nM and 3.13 nM.
As for B5, the “cAMP Mean pM GLP-1R” value turned out to be 503 pM, the “cAMP Primary assay EC50 GLP-1R n1” value was 0.55 nM and the “cAMP Primary assay EC50 GLP-1R n2” value is 0.458 nM.
Regarding B6, the “cAMP Mean pM GLP-1R” value is 9 pM, the “cAMP Primary assay EC50 GLP-1R n1” value came out at 0.0093 nM and the “cAMP Primary assay EC50 GLP-1R n2” value is 0.00912 nM.
For the molecule B7, the “cAMP Mean pM GLP-1R” value came out at 25100 pM, the “cAMP Primary assay EC50 GLP-1R n1” value turned out to be 25 nM and the “cAMP Primary assay EC50 GLP-1R n2” value is 25.1 nM.
As for B8, the “cAMP Mean pM GLP-1R” value came to 783 pM, the “cAMP Primary assay EC50 GLP-1R n1” value stood at 0.81 nM and the “cAMP Primary assay EC50 GLP-1R n2” value was 0.758 nM.
For B9, in that order: 4660 pM, 4.9 nM and 4.43 nM.
For the molecule B10, the “cAMP Mean pM GLP-1R” value was 6 pM, the “cAMP Primary assay EC50 GLP-1R n1” value worked out at 0.006 nM and the “cAMP Primary assay EC50 GLP-1R n2” value was found to be 0.00539 nM.
For B11, the “cAMP Mean pM GLP-1R” value is 24900 pM, the “cAMP Primary assay EC50 GLP-1R n1” value was determined as 25 nM and the “cAMP Primary assay EC50 GLP-1R n2” value was 24.9 nM.
In the case of B12, the “cAMP Mean pM GLP-1R” value was 17 pM, the “cAMP Primary assay EC50 GLP-1R n1” value was 0.018 nM and the “cAMP Primary assay EC50 GLP-1R n2” value was 0.0157 nM.

For the next experiment, the target named is glucagon receptor (GCGR) (human, UniProt P47871 26-477). As to the kind of experiment: cell-based or functional assay.
glucagon receptor (GCGR), sequence (P47871 26-477): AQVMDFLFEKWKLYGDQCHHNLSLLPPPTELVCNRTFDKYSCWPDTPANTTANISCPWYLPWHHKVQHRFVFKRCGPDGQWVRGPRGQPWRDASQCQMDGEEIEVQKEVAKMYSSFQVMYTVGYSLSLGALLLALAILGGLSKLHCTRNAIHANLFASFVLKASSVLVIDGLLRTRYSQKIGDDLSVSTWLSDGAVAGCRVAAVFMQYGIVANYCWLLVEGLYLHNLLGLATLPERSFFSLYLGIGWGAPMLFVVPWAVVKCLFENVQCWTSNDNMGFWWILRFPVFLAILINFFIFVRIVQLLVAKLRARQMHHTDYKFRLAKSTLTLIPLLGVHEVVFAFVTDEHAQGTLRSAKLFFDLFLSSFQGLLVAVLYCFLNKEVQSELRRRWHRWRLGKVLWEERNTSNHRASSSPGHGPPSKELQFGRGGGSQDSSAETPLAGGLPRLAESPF
With B1, the “cAMP Primary assay EC50 Gluc-R” value stood at 25 nM and the “cAMP Primary assay EC50 Gluc-R (2nd)” value turned out to be 25.1 nM.
The like results for B2 were, in that order, 25 nM and 25.2 nM.
Turning to B3, the “cAMP Primary assay EC50 Gluc-R” value was found to be 25 nM and the “cAMP Primary assay EC50 Gluc-R (2nd)” value came out at 25.1 nM.
For B4, in that order: 25 nM and 25.3 nM.
For B5, in that order: 25 nM and 25.4 nM.
For B6, the “cAMP Primary assay EC50 Gluc-R” value turned out to be 26 nM and the “cAMP Primary assay EC50 Gluc-R (2nd)” value is 25.6 nM.
For B7, in that order: 25 nM and 25.1 nM.
For the molecule B8, the “cAMP Primary assay EC50 Gluc-R” value was 25 nM and the “cAMP Primary assay EC50 Gluc-R (2nd)” value came out at 25.2 nM.
The like results for B9 were, in that order, 26 nM and 25.6 nM.
Take B10: the “cAMP Primary assay EC50 Gluc-R” value is 25 nM and the “cAMP Primary assay EC50 Gluc-R (2nd)” value worked out at 25.3 nM.
Take B11: the “cAMP Primary assay EC50 Gluc-R” value was 25 nM and the “cAMP Primary assay EC50 Gluc-R (2nd)” value came to 24.9 nM.
Take B12: the “cAMP Primary assay EC50 Gluc-R” value was found to be 25 nM and the “cAMP Primary assay EC50 Gluc-R (2nd)” value is 25.2 nM.
